From patent US20250000988A1, “EPHA2 BICYCLIC PEPTIDE LIGAND AND CONJUGATE THEREOF” (priority 2021, published 2025)
Like-named read-outs stand apart in the source and are kept apart here. Numbered stars: 1 amine (or outer) side, 2 acyl side, 3 side chain; on linkers, the order of the positions; unused ones are H or OH. Bridge positions count the residues as written; N and C are the ends. Square brackets hold non-standard residues; d marks the D form. Peptide text beside a SMILES is read from it. I, II: the chains in the order shown. * marks the point of attachment. X3 = O=C(CCCC(=O)NCCC(=O)[*:1])NCCOCCOCCN(CC(=O)[*:2])CC(=O)[*:3]; TATA = O=C(CC[*:1])N1CN(C(=O)CC[*:2])CN(C(=O)CC[*:3])C1; Dolaproine = CO[C@@H]([C@@H]1CCCN1)[C@@H](C)C(=O)O; Dil = CC[C@H](C)[C@H](NC)[C@@H](CC(=O)O)OC; X2 = O=C(CCCC(=O)[*:2])NCCC(=O)[*:1]; PABC = O=C(OCc1ccc(N[*:1])cc1)[*:2]; X1 = C[C@@H](N*)[C@@H](O)c1ccccc1; Hyp = O=C(O)[C@@H]1C[C@@H](O)CN1; hArg = N=C(N)NCCCC[C@H](N)C(=O)O; Cit = NC(=O)NCCC[C@H](N)C(=O)O; NMeV = CN[C@H](C(=O)O)C(C)C; hCys = N[C@@H](CCS)C(=O)O; Sar = CNCC(=O)O

Key:
[1] = system: PC3 cells subcutaneous transplanted tumor; test: Mouse PC3 cells subcutaneous in vivo transplanted tumor model; design: species or system CB-17 SCID mice; details: 0.5 mg/kg intravenously, once a week, 35 days
Experimental: Human prostate cancer PC3 cells were placed in an RPMI-1640 medium (supplemented with 10% fetal bovine serum and 1% penicillin-streptomycin solution) and cultured at 37° C. Conventional digestion treatment with trypsin was carried out twice a week for passage. When the cell saturation was 80%-90%, and the number reached the requirement, the cells were collected, counted, and inoculated. Male CB-17 SCID mice (from Beijing Vital River Laboratory Animal Technology Co., Ltd.) were subcutaneously inoculated with 0.1 mL (2×10^6) of PC3 cells (plus matrigel, with the volume ratio of 1:1) on the right back. When the average tumor volume reached about 80-120 mm^3, grouping and administration were performed (marked as Day 0). For the solvent group, 50 mM of acetic acid and 10% sucrose solution (pH=5) were administered; and for the administration group, 0.5 mg/kg of compound 2, compound 4 or compound 13 was intravenously administered. The administration frequency was once a week and the administration cycle was 35 days (Day 0-Day 34). After grouping, the tumor diameter was measured twice a week with a vernier caliper. The formula for calculating the tumor volume was: V=0.5×a×b^2, where a and b represented the long and short diameters of the tumor, respectively. The tumor inhibitory effect of the compound was evaluated by TGI (%)= [1−(average tumor volume at the end of administration in the treatment group-average tumor volume at the beginning of administration in the treatment group)/(average tumor volume at the end of treatment in the solvent control group-average tumor volume at the beginning of treatment in the solvent control group)]×100%. The tumor growth curve and the animal body weight change curve were as shown in FIG. 1 and FIG. 2, respectively.

PC3 cells = test: PC3 cell proliferation inhibition assay; assay type: cell-based, human
Experimental: PC3 cell culture conditions: RPMI-1640+10% FBS+1% penicillin-streptomycin solution. The cells were cultured in a 37° C., 5% CO2 incubator. On the first day, the PC3 cells in the exponential growth phase were collected and plated in a 96-well cell culture plate at a density of 500 cells/well (90 μL/well). The cells were cultured overnight in a 37° C., 5% CO2 incubator. The next day, 10 μL of the compound at different concentrations was added to each well so that the final concentration of DMSO in each well was 0.1%. The mixture was cultured in a 37° C., 5% CO2 incubator for 3 days. After the completion of culture, 50 μL of detection solution (Cell Viability Assay, Promega, G7573) was added to each well. The mixture was mixed uniformly for 2 minutes and incubated at room temperature for 10 minutes. The chemiluminescence reading was detected by a microplate reader. The results were processed according to formula (1), the proliferation inhibition rate of the compound at different concentrations was calculated, and the IC50 value of the compound with an inhibition rate of 50% was calculated using origin9.2 software, wherein RLUcompound was the readout of the treated group, and RLUcontrol was the average value of the solvent control group.

[2] = Pharmacokinetic test in monkeys; details: cynomolgus monkey, in vivo, iv, monkey plasma; for AUC(0-t) / Cmax / half-life: 1 mg/kg
Experimental: 4.1 Experimental animals: male cynomolgus monkeys, 3-5 kg, 3-6 years old, 3 monkeys/compound. Purchased from Suzhou Xishan Biotechnology Inc.
4.2 Experimental method: on the day of the test, 3 monkeys were randomly grouped according to their body weights. The animals were fasted with water available for 14 to 18 h one day before the administration, and were fed 4 h after the administration.
Solvent for intravenous administration: 5% DMA+95% (20% SBE-CD).
Before and after the administration, 1.0 mL of blood samples were drawn from the limb veins and placed in an EDTAK2 centrifuge tube. Centrifugation was carried out at 5000 rpm at 4° C. for 10 min, and the plasma was collected. The blood collection time points for the intravenous administration group were: 0, 2 min, 5 min, 15 min, 30 min, 1 h, 2 h, 4 h, 6 h, 8 h, and 24 h. Before analysis and detection, all samples were stored at −80° C., and a quantitative analysis of samples was performed using LC-MS/MS.

[3] = Pharmacokinetic test in rats; design: species or system SD rats; details: in vivo, iv, rat plasma, i.v. 1 mg/kg, analyte PDC
Experimental: 3.1 Experimental animals: male SD rats, about 220 g, 6-8 weeks old, 3 rats/compound. Purchased from Chengdu Ddossy Experimental Animals Co., Ltd.
3.2 Experimental design: on the day of the test, 3 SD rats were randomly grouped according to their body weights. The animals were fasted with water available for 12 to 14 h one day before the administration, and were fed 4 h after the administration.
Before and after the administration, 0.15 m1 of blood was taken from the orbit of the animals under isoflurane anesthesia and placed in an EDTAK2 centrifuge tube. The blood was centrifuged at 5000 rpm and 4° C. for 10 min to collect plasma. The blood collection time points for the intravenous administration group and intragastric administration group were: 0, 5 min, 15 min, 30 min, 1 h, 2 h, 4 h, 6 h, 8 h and 24 h. Before analysis and detection, all samples were stored at −80° C., and a quantitative analysis of samples was performed using LC-MS/MS.

MOLP8 cells = test: MOLP8 cell proliferation inhibition assay; assay type: cell-based, human; details: MOLP8 cells (EphA2 negative cell), incubated 5 days
Experimental: Human multiple myeloma MOLP8 cells purchased from DSMZ were placed in complete RPMI-1640 medium (supplemented with 20% fetal bovine serum) and cultured at 37° C. and 5% CO2. The cells in the exponential growth phase were collected, and the cell suspension was adjusted to 8000 cells/135 μL with the culture medium. 135 μl of the cell suspension was added to each well of a 96-well cell culture plate and incubated overnight. The next day, compounds at different concentrations were added, and the plate was placed in the incubator and incubated for 5 days. After the completion of culture, according to operation instructions for a CellTiter-Glo kit (Promega, Cat #G7573), 75 μL of CTG solution, which was already pre-melted and equilibrated to room temperature, was added to each well, and the mixture was uniformly mixed for 2 minutes using a microplate shaker. The plate was placed at room temperature for 10 minutes, and then […] signal values were measured using an Envision 2104 plate reader (PerkinElmer). The cell proliferation inhibition rate was calculated according to the formula [(1−(RLUcompound−RLUblank)/(RLUcontrol−RLUblank))×100%]. The IC50 value was obtained by four-parameter nonlinear fitting using GraphPad Prism software.

[4] = i.v. 1 mg/kg of compound 4, analyte MMAE

CC[C@H](C)[C@@H]([C@@H](CC(=O)N1CCC[C@H]1[C@H](OC)[C@@H](C)C(=O)N[C@H](C)[C@@H](O)c1ccccc1)OC)N(C)C(=O)[C@@H](NC(=O)[C@H](C(C)C)N(C)C(=O)OCc1ccc(NC(=O)[C@H](CCCNC(N)=O)NC(=O)[C@@H](NC(=O)CCCC(=O)NCCC(=O)N(C)CC(=O)N(C)CC(=O)N(C)CC(=O)N(C)CC(=O)N(C)CC(=O)N(C)CC(=O)N(C)CC(=O)N(C)CC(=O)N(C)CC(=O)N(C)CC(=O)N[C@@H](C)C(=O)N[C@@H](CCCCNC(=N)N)C(=O)N[C@@H](CC(=O)O)C(=O)N[C@H]2CSCCC(=O)N3CN4CN(C3)C(=O)CCSC[C@H](NC(=O)[C@H](CC(C)C)NC(=O)[C@@H]3CCCN3C(=O)[C@H](CC(N)=O)NC(=O)[C@H](C(C)C)NC(=O)[C@H](CC(C)C)NC(=O)[C@@H]3C[C@@H](O)CN3C2=O)C(=O)N[C@@H](CC(C)C)C(=O)N[C@@H](Cc2c[nH]cn2)C(=O)N2CCC[C@H]2C(=O)N[C@H](CC(=O)O)C(=O)N[C@@H](Cc2c[nH]c3ccccc23)C(=O)N[C@@H](CCCCNC(=N)N)C(=O)N[C@H](C(N)=O)CCSCCC4=O)C(C)C)cc1)C(C)C [Compound 2] (I: [Sar][Sar][Sar][Sar][Sar][Sar][Sar][Sar][Sar][Sar]A[hArg]DC[Hyp]LVNPLCLHP[dD]W[hArg][hCys]-NH2 / II: V[Cit][PABC][NMeV]V[Dil][Dolaproine]-X1; linker I:14-I:21-I:28 via TATA; linker I:N-II:N via X2)
tolerability [1]: well tolerated
IC50 (PC3 cells; read-out: IC50 value): 3.1 nM

CC[C@H](C)[C@@H]([C@@H](CC(=O)N1CCC[C@H]1[C@H](OC)[C@@H](C)C(=O)N[C@H](C)[C@@H](O)c1ccccc1)OC)N(C)C(=O)[C@@H](NC(=O)[C@H](C(C)C)N(C)C(=O)OCc1ccc(NC(=O)[C@H](CCCNC(N)=O)NC(=O)[C@@H](NC(=O)CCCC(=O)NCCC(=O)N(C)CC(=O)N(C)CC(=O)N(C)CC(=O)N(C)CC(=O)N(C)CC(=O)N(C)CC(=O)N(C)CC(=O)N(C)CC(=O)N(C)CC(=O)N(C)CC(=O)N[C@@H](C)C(=O)N[C@@H](CCCCNC(=N)N)C(=O)N[C@@H](CC(=O)O)C(=O)N[C@H]2CCSCCC(=O)N3CN4CN(C3)C(=O)CCSC[C@H](NC(=O)[C@H](CC(C)C)NC(=O)[C@@H]3CCCN3C(=O)[C@H](CC(N)=O)NC(=O)[C@H](C(C)C)NC(=O)[C@H](CC(C)C)NC(=O)[C@@H]3C[C@@H](O)CN3C2=O)C(=O)N[C@@H](CC(C)C)C(=O)N[C@@H](Cc2c[nH]cn2)C(=O)N2CCC[C@H]2C(=O)N[C@H](CC(=O)O)C(=O)N[C@@H](Cc2c[nH]c3ccccc23)C(=O)N[C@@H](CCCCNC(=N)N)C(=O)N[C@H](C(N)=O)CSCCC4=O)C(C)C)cc1)C(C)C [Compound 4] (I: [Sar][Sar][Sar][Sar][Sar][Sar][Sar][Sar][Sar][Sar]A[hArg]D[hCys][Hyp]LVNPLCLHP[dD]W[hArg]C-NH2 / II: V[Cit][PABC][NMeV]V[Dil][Dolaproine]-X1; linker I:14-I:21-I:28 via TATA; linker I:N-II:N via X2)
tolerability [1]: well tolerated
AUC(0-t) [2, 4]: 20.8 ng·h/mL
Cmax [2, 4]: 3.71 ng/mL
half-life [2, 4]: 1460 min
AUC(0-t) ([2]; i.v. 1 mg/kg, analyte PDC): 3030 ng·h/mL
Cmax ([2]; i.v. 1 mg/kg, analyte PDC): 7630 ng/mL
half-life ([2]; i.v. 1 mg/kg, analyte PDC): 38.6 min
clearance ([2]; i.v. 1 mg/kg, analyte PDC): 5.57 mL/min/kg
Vd ([2]; i.v. 1 mg/kg, analyte PDC, read-out: Vdss): 0.179 L/kg
AUC(0-t) [3]: 1470 ng·h/mL
Cmax [3]: 6530 ng/mL
clearance [3]: 11 mL/min/kg
half-life [3]: 16.3 min
Vd ([3]; read-out: Vdss): 0.233 L/kg
IC50 (MOLP8 cells): 144 nM
IC50 (PC3 cells; read-out: IC50 value): 2.9 nM

CC[C@H](C)[C@@H]([C@@H](CC(=O)N1CCC[C@H]1[C@H](OC)[C@@H](C)C(=O)N[C@H](C)[C@@H](O)c1ccccc1)OC)N(C)C(=O)[C@@H](NC(=O)[C@H](C(C)C)N(C)C(=O)OCc1ccc(NC(=O)[C@H](CCCNC(N)=O)NC(=O)[C@@H](NC(=O)CCCC(=O)NCCC(=O)N(C)CC(=O)N(C)CC(=O)N(C)CC(=O)N(C)CC(=O)N(C)CC(=O)N(C)CC(=O)N(C)CC(=O)N(C)CC(=O)N(C)CC(=O)N(C)CC(=O)N[C@@H](C)C(=O)N[C@@H](CCCCNC(=N)N)C(=O)N[C@@H](CC(=O)O)C(=O)N[C@H]2CCSCCC(=O)N3CN4CN(C3)C(=O)CCSC[C@H](NC(=O)[C@H](CC(C)C)NC(=O)[C@@H]3CCCN3C(=O)[C@H](CC(N)=O)NC(=O)[C@H](C(C)C)NC(=O)[C@H](CC(C)C)NC(=O)[C@@H]3C[C@@H](O)CN3C2=O)C(=O)N[C@@H](CC(C)C)C(=O)N[C@@H](Cc2c[nH]cn2)C(=O)N2CCC[C@H]2C(=O)N[C@H](CC(=O)O)C(=O)N[C@@H](Cc2c[nH]c3ccccc23)C(=O)N[C@@H](CCCCNC(=N)N)C(=O)N[C@H](C(N)=O)CCSCCC4=O)C(C)C)cc1)C(C)C [Compound 13] (I: [Sar][Sar][Sar][Sar][Sar][Sar][Sar][Sar][Sar][Sar]A[hArg]D[hCys][Hyp]LVNPLCLHP[dD]W[hArg][hCys]-NH2 / II: V[Cit][PABC][NMeV]V[Dil][Dolaproine]-X1; linker I:14-I:21-I:28 via TATA; linker I:N-II:N via X2)
tolerability [1]: well tolerated

I: [Sar][Sar][Sar][Sar][Sar][Sar][Sar][Sar][Sar][Sar]A[hArg]D[hCys][Hyp]LVNPLCLHP[dD]W[hArg]C-NH2 / II: V[Cit][PABC][NMeV]V[Dil][Dolaproine]-X1 / III: V[Cit][PABC][NMeV]V[Dil][Dolaproine]-X1 (linker I:14-I:21-I:28 via TATA; linker I:N-II:N-III:N via X3) [Compound 17]
Max inh. % 10 μM (PC3 cells; 10 μM): 69.4%
IC50 (PC3 cells; cultured 3 days with compound, read-out: IC50): ≤ 10 nM
IC50 (PC3 cells; read-out: IC50 value): 1 nM
